# Results taken from patent US10962518B2, “Dissolution test for sensitive drugs” (ROYAN INSTITUTE, priority 2017, dated 2021).
# Where two headings read alike, the source gives them in different places.
# How the values were obtained:
# [1] = cited from earlier work; for tstability of drug: at 37° C.
# [2] = hGH stability tests in phosphate buffer (0.01 ppm hGH solution, stability versus time); type: physicochemical; conditions: 0.01 ppm hGH in 0.05 M phosphate buffer pH=7.4
# Protocol: In this example, exemplary systems and methods were used for performing dissolution tests on human growth hormone (hGH), consistent with an exemplary embodiment of the present disclosure. The release performance of hGH was evaluated for a 14-day period. First, the stability of hGH in a phosphate buffer at 37±1° C. was tested. To this end, a 0.01 ppm hGH solution in a 0.05 M phosphate buffer with a pH=7.4 was prepared. The prepared hGH solution was maintained at a temperature of approximately 37±1° C. and stability analyses were performed at 0, 1, 2, 3, 4, 6, 12, and 24 hours.
# FIG. 4 illustrates an hGH stability versus time graph obtained from stability tests performed at 37±1° C., consistent with one or more exemplary embodiments of the present disclosure. […] Therefore, if a dissolution test was to be performed by available USP apparatuses, the hGH solution would have to be prepared, sampled and analyzed every 2 hours, which means for a dissolution evaluation that needs to be performed during a 14-day period, at least 168 dissolution tests must be performed.
# The stability of hGH was then tested in a phosphate buffer at 5±2° C. To this end, a 0.01 ppm hGH solution in a 0.05 M phosphate buffer with a pH=7.4 was prepared. The prepared hGH solution was maintained at a temperature of approximately 5±2° C. and stability analyses were performed at 0, 1, 2, 3, 4, and 5 days. […]
compound,measurement,setting,value
COc1ccc2[nH]c([S+]([O-])Cc3ncc(C)c(OC)c3C)nc2c1 (stereo not shown) [Omeprazole],tstability of drug,[1]; phosphate buffer pH 7.5,<10 h
"O=C1CN(/N=C/c2ccc(-c3ccc([N+](=O)[O-])cc3)o2)C(=O)[N-]1.[Na+] [Dantrolene, dantrolene sodium]",tstability of drug,[1]; Buffer with pH 7.4,1 h
same,time for which the drug is stable in the dissolution medium,"[1]; phosphate buffer with a pH of 7.4, approximately 37° C.",1 h
"IGF-I: IGF-I, a drug listed in Table 2 with serum as its dissolution medium",tstability of drug,[1]; serum,<10 h
"hGH: human growth hormone (hGH), the temperature-sensitive drug used in the Example",time for which the hGH solution is stable,"[2]; 5±2° C., analyses at 0-5 days (FIG. 5)",1 days
same,time for which the hGH solution is stable,"[2]; 37±1° C., analyses at 0-24 hours (FIG. 4)",0.083 days
same,tstability of drug,[1]; PBS buffer pH = 7.4,1 h
